Molecular target: T1, Vascular Endothelial Growth Factor (VEGF), receptor binding domain, VEGF_(8–109) (human)
T1 chain: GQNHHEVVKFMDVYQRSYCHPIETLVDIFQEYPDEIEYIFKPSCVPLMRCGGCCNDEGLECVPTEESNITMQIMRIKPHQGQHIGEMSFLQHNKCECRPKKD
Experiment: SPR

- koff: 0.0014 s⁻¹
B1: bH1-44 Fab (affinity-improved variant of bH1) (Fab, V domains shown)
VH: EVQLVESGGGLVQPGGSLRLSCAASGFNISGTYIHWVRQAPGKGLEWVARIYPSEGYTRYADSVKGRFTISADTSKNTAYLQMNSLRAEDTAVYYCSRWVGVGFYAMDYWGQGTLVTVSS
VL: DIQMTQSPSSLSASVGDRVTITCRASQNIAKTISGYVAWYQQKPGKAPKLLIYWGSFLYSGVPSRFSGSGSGTDFTLTISSLQPEDFATYYCQQHYSSPPTFGQGTKVEIK

— paper PMC3081289 (2011)
